Measurements taken from patent US20250127857A1, “A COMPOSITION COMPRISING IL-36 AND/OR IL-18 FOR USE IN TREATING OCULAR DISORDERS” (THE PROVOST, FELLOWS, FOUNDATION SCHOLARS, & THE OTHER …, priority 2021, published 2025).

Tests used:
Assay type in all cases: cell-based, human
HRMEC [1] = test: Proliferation assays (nuclei cell count, MTS/PMS); settings: 24 hours
Procedure: HRMEC were seeded on coverslips in 6 well plates at a density of 5×10^4 cells/ml and allowed to grow overnight in growth media. They were then washed in PBS and placed in reduced serum media and incubated with treatment for 24 hour. The coverslip was then washed in PBS, fixed in ice cold methanol and stained with Hoechst (1:10000). The coverslips were then affixed to slides and imaged via fluorescence. N=10 images per slip were taken and averaged to give a cell count per coverslip. For the MTS/PMS assay (Promega) cells were seeded at a density of 5×10^4 cells/ml in a 96 well plate. They were allowed to grow overnight in complete growth media before being washed and placed in low-serum media with the treatment indicated for 24 hours before the MTS/PMS assay was carried out as per manufacturer's protocol.

[2] = system: ZO-1, tricellulin and occludin; test: Western blot for tight junction proteins; settings: HRMEC, 24 h, indicated concentrations
Procedure: (§1) FIG. 6 illustrates IL-36 cytokines alter the protein levels of adherens and tight junction components in endothelial cells, wherein (A, B) are Western blot for VE-cadherin protein expression in response to (A) IL-36α, (B) IL-36β treatment for 24 hours at indicated doses in HRMEC, representative N=4 experiments; (C, D) are Western blot for the expression of tight junction proteins ZO-1, tricellulin and occludin in response to (C) IL-36α and (D) IL-36β treatment at indicated concentrations for 24 hours in HRMEC, representative of N=3 experiments; (E) is rate of flux of 70 kDa FITC dextran through HRMEC transwell monolayer with 6 hr pretreatment of 100 ng/ml IL-36α and/or 10 μM cycloheximide (CHX), with treatment applied to apical and basal chambers, representative of N=3 experiments; (F) is permeability apparent for HRMEC treated with IL-36α and/or 10 μM CHX, calculated as stated previously; (G) is rate of flux of 70 kDa FITC dextran through HRMEC transwell monolayer with 6 hr pretreatment of 100 ng/ml IL-36β and/or 10 μM CHX, with treatment applied to apical and basal chambers, representative of N=3 experiments; (H) is permeability apparent for HRMEC treated with IL-36β and/or CHX, calculated as stated previously, wherein T-tests were performed as statistical analysis;
(§2) Protein was extracted from cells using RIPA buffer containing protease inhibitors (Sigma). […]

HRMEC [3] = test: HRMEC scratch wound healing / migration with IL-36 cytokines; settings: treatment applied at time of scratch, 100 ng/ml
Procedure: FIG. 4 illustrates IL-36 cytokines promote endothelial cell migration, wherein (A, B) are representational images of the HRMEC ‘scratch’ healing with (A) IL-36α (B) IL-36β treatment compared to control at 10× magnification, wherein purple dotted lines equate to the size of the wound as imaged using Image J; (C) is rate of wound healing in HRMEC treated with IL-36α expressed as % wound closure, representational of N=4 experiments, wherein two-way ANOVA was performed as statistical test; (D) is a comparison of the level of wound healing between untreated (unt.) and 100 ng/ml IL-36α at 4 and 24 hr post scratch, consolidated N=4 experiments, wherein two-way ANOVA with multiple comparison was performed as statistical test; (E) is rate of wound healing in HRMEC treated with IL-36β expressed as % wound closure, representational of N=4 experiments, wherein two-way ANOVA with multiple comparison performed as statistical test; (F) is a comparison of the level of wound healing between no treatment and 100 ng/ml IL-36β at 4 and 24 hr post scratch, consolidated N=4 experiments, wherein two-way ANOVA with multiple comparison was performed as statistical test;
Cells were seeded on to a 12-well plate and grown until they reached confluency. […] The area within the scratch was quantified using ImageJ software, and each timepoint was normalised to its baseline and expressed as % closure.

[4] = system: HRMEC transwell monolayer; test: Permeability assay (4 kDa FITC dextran flux, Papp); settings: 100 ng/ml, 6 or 24 hour exposure
Procedure: HRMEC were grown on transwells (Corning) for 5-7 days to polarize. The cells were placed in low serum media and treated with IL-36 cytokines for 6 or 24 hours, before 4 kDa FITC dextran (Sigma) diluted to 1 mg/ml in low serum media was placed in the apical chamber. Sampling aliquots were periodically removed from the basal chamber and placed in a 96 well plate. The basolateral chamber was then replenished with fresh media. This was repeated at 20-minute intervals for 2 hours. The fluorescence of FITC dextran was measured using a fluorescent plate-reader (BioTek) at an excitation wavelength of 485 nm and an emission wavelength of 520 nm. Relative fluorescence units (RFU) were converted to ng/ml using a FITC dextran standard curve and corrected for background fluorescence and serial dilutions over the course of the experiment. The apparent permeability coefficient (Papp) was calculated as follows: […]
where dQ/dT is the apparent rate of FITC dextran appearance in the basolateral chamber, A (cm^2) is the surface area of the insert, C0 (mg/ml) is the initial FITC-dextran concentration in the apical chamber. dQ/dT is the slope (y=mx+c) calculated by plotting the cumulative amount (Q) against time(s).

VE-cadherin = test: Western blot for VE-cadherin protein expression; settings: HRMEC, 24 h
Procedure: as §1, §2

HRMEC [5] = test: Tube formation assay (Matrigel); settings: HRMEC on matrigel, 100 ng/ml, 4 hours, vs unstimulated control
Procedure: Cells were seeded 2 days prior to the experiment in a T75 in complete growth media and allowed to become ˜80% confluent. They were placed in low serum media overnight prior to use in the experiment. 96 well plates were coated with 60 μl of Matrigel Basement Membrane Matrix (Corning) and placed in a 370C incubator for 30 minutes to set as per manufacturer's instructions. HRMEC were then seeded onto the plates at a density of 8×10^4 cells/ml and treated as indicated with cytokine in triplicate. The plates were placed in an Incucyte and phase contrast images of the wells were taken at 10× for 30 minute intervals. The angiogenesis analyser plug-in for ImageJ was used to analyse the images.

[6] = system: HRMEC transwell monolayer; test: Inhibition of translation (cycloheximide) with 70 kDa FITC dextran flux; settings: 100 ng/ml cytokine plus 10 μM cycloheximide (CHX), 6 hr
Procedure: HRMEC were grown in transwells as above. Once polarised, HRMEC were treated with 10 μM of the translation inhibitor cycloheximide (Sigma) and/or IL-36 cytokine. 70 kDa FITC dextran (Sigma) diluted to 1 mg/ml in low serum media was placed in apical chamber and performing a FITC flux assay as described above.

[7] = system: HRMEC transwell monolayer; test: Trans-endothelial electrical resistance (TEER) measurement; settings: 100 ng/ml, 6 hr, vs untreated control
VEGFR2 = test: qPCR of VEGFR2 expression in HRMEC treated with IL-36 cytokines; settings: treatment over timepoints
Excerpt: Primers used were sourced from Sigma.

B1: IL-36α: recombinant human (rh) IL-36α (Peprotech) (protein, UniProt Q9UHA7 6-158, looked up)
Interleukin-36 alpha: KIDTPQQGSIQDINHRVWVLQDQTLIAVPRKDRMSPVTIALISCRHVETLEKDRGNPIYLGLNGLNLCLMCAKVGDQPTLQLKEKDIMDLYNQPEPVKSFLFYHSQSGRNSTFESVAFPGWFIAVSSEGGCPLILTQELGKANTTDFGLTMLF
number of cells (stained nuclei count) (HRMEC [1]; 100 ng/ml): increase in the number of cells
proliferation (MTS/PMS assay) (HRMEC [1]; 50 or 100 ng/ml): significant increase in proliferation
proliferation compared with VEGF (MTS/PMS assay) (HRMEC [1]; VEGF 50 ng/ml positive control): neither cytokine was as effective as VEGF alone
expression of ZO-1, tricellulin and occludin protein [2]: dose dependent increase in expression
rate of wound closure and cell migration (HRMEC [3]): increased the rate of wound closure and cell migration significantly
rate of FITC-dextran migrating across the HRMEC monolayer [4]: notably decreased
VE-cadherin protein expression (VE-cadherin): Increased expression of VE-cadherin
length of tubes (HRMEC [5]): potential ability to increase the length of the tubes
IL-36-dependent barrier enhancement under inhibition of protein translation [6]: absolute loss
TEER [7]: significantly increased TEER
VEGFR2 expression (VEGFR2): reduce VEGFR2 expression
